Results: PMC11389776, “Positive allosteric modulation of a GPCR ternary complex” (Science Advances, 2024)
One block for each substance: values may come before it.

Tests used:
[1] = target: M2ΔICL3 mAChR (Flag-M2ΔICL3-His) reconstituted into cMSP1D1 nanodiscs (human) (UniProt P08172)
[2] = target: M2ΔICL3 mAChR (Flag-M2ΔICL3-His) reconstituted into cMSP1D1 nanodiscs (human) (UniProt P08172); assay: radioligand binding; Gi1 heterotrimer titrated (R:G ratios plotted as molar concentration) against a KD concentration of [3H]-NMS at M2 mAChR nanodiscs; affinity for the NMS-bound receptor from the allosteric ternary complex model (ATCM); 20 mM Hepes pH 7.5, 100 mM NaCl, 10 mM MgCl2, 0.5% BSA; 6 hours at RT; filtration; conditions: scale: negative logarithm of the equilibrium dissociation constant
M2 mAChR [3] = target: T1, M2 mAChR (Homo sapiens, UniProt P08172, DEL226-389); assay: [3H]-NMS competition binding at M2 mAChR nanodiscs with or without Gi1 protein; conditions: 1:2000 molar ratio M2 mAChR:G protein, [3H]-NMS competition binding
T1 construct: made in house; host or cells: Sf9 insect cells (receptor, baculovirus); Trichoplusia ni Hi5 cells (G protein); E. coli BL21(DE3) (cMSP1D1 scaffold)
T1 sequence (P08172 with tags, fused parts or gaps DEL226-389): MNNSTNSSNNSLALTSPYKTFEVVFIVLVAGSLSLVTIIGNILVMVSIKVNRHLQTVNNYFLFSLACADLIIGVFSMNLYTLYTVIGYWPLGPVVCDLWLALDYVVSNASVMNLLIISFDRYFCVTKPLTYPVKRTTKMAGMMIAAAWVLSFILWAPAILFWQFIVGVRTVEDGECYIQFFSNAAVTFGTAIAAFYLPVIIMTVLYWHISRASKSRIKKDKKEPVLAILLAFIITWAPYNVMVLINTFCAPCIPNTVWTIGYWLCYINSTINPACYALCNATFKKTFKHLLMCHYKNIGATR
Procedure: (§1) The affinity of [^3H]-NMS for M2 mAChR in nanodiscs, as well as the concentration of receptor in nanodiscs, was determined through saturation binding with [^3H]-NMS. M2 nanodiscs were incubated with a range of concentrations of [^3H] […] Membrane equilibrium binding experiments were performed with 15 μg of membrane expressing the WT hM2 mAChR in a 300-μl reaction volume of binding buffer with or without 100 μM Gpp[NH]pp in deep 96-well plates for 6 hours at RT. […] For all radioligand binding experiments, nonspecific binding was defined by 10 μM Atr and the assay was terminated through rapid filtration through Whatman GF/B filter plates using a 96-well harvester (PerkinElmer). Filter plates were dried overnight, and radioactivity was determined by adding 40 μl of MicroScint-O scintillation fluid and counting in a MicroBeta^2 Plate Counter (PerkinElmer Life Sciences).
(§2) All data were analyzed using GraphPad Prism 9 (GraphPad Software, San Diego, CA). […] For competition binding experiments between [^3H]-NMS and a range of concentrations of unlabeled orthosteric agonist at M2 mAChR nanodiscs in the presence of G protein and for competition binding at M2 mAChR membranes, data were fit to a two-site competition binding model or a one-site competition binding model. […] Monoexponential decay and one-phase association equations were fit to the radioligand dissociation and association data at M2 mAChR nanodiscs.

M2 mAChR [4] = target: T1, M2 mAChR; assay: [3H]-NMS interaction binding with LY211 and/or G protein at M2 mAChR nanodiscs (full interaction and titration); conditions: Titration against KD concentration of [3H]-NMS, ATCM
Procedure: as §1, §2

FracHi: fraction of receptors in the high-affinity state for ACh, [3H]-NMS competition binding at M2 mAChR nanodiscs, receptor:G protein molar ratio 1:0 to 1:2000 (highest at 1:2000) [1]: 1
FracHi: fraction of receptors in the high-affinity state for Ipx, [3H]-NMS competition binding at M2 mAChR nanodiscs, receptor:G protein molar ratio 1:0 and 1:500 to 1:2000 (highest at 1:2000) [1]: 0.91
FracHi: fraction of receptors in the high-affinity state for Pilo, [3H]-NMS competition binding at M2 mAChR nanodiscs, receptor:G protein molar ratio 1:0 and 1:500 to 1:2000 (highest at 1:2000) [1]: 0.73
pKB [2]: 7.37
Substance: WT G protein heterotrimer Gαi1β1γ2 (from UniProt P63096 1-354; P62873 1-340; P59768 1-71) (complex)

Substance: Gq: purified heterotrimeric G protein, Gq α subunit with Gβ1γ2
effect of G protein heterotrimer on ACh affinity (M2 mAChR [3]): could not mediate any change in ACh affinity

Log α[3H]-NMS (M2 mAChR [4]): −0.55 ± 0.16 (10)
pKB (M2 mAChR [4]): 7.37 ± 0.22 (10)
Log α[3H]-NMS (M2 mAChR [4]; listed as Gi1): −0.55 ± 0.16
Substance: G protein heterotrimer: purified WT G protein heterotrimer (Gαi1β1γ2)
